# Tests used:
# [1] = biological target: Human trophoblast cell surface antigen 2 (Trop-2), on tumor cell lines (human) (UniProt P09758); test: flow cytometry, 5 ug/mL hRS7 + PE anti-human IgG; cell line CFPAC-1 (pancreas)
# [2] = biological target: Human trophoblast cell surface antigen 2 (Trop-2), on tumor cell lines (human) (UniProt P09758); test: flow cytometry, 5 ug/mL hRS7 + PE anti-human IgG; cell line printed 'CPAC-1' (pancreas; probably CFPAC-1)
# [3] = biological target: Human trophoblast cell surface antigen 2 (Trop-2), on tumor cell lines (human) (UniProt P09758); test: flow cytometry background, taken as human IgG1 isotype control; cell line CFPAC-1
# [4] = biological target: Human trophoblast cell surface antigen 2 (Trop-2), on tumor cell lines (human) (UniProt P09758); test: flow cytometry background, taken as human IgG1 isotype control; cell line printed '3128' (probably HT29)
# [5] = biological target: Human trophoblast cell surface antigen 2 (Trop-2), on tumor cell lines (human) (UniProt P09758); test: flow cytometry background, taken as human IgG1 isotype control; cell line printed 'H123' (probably HT29)
# [6] = biological target: Human trophoblast cell surface antigen 2 (Trop-2), on tumor cell lines (human) (UniProt P09758); test: flow cytometry background, taken as human IgG1 isotype control; cell line printed 'SKERS' (probably SKBR3)
# [7] = biological target: Human trophoblast cell surface antigen 2 (Trop-2), on tumor cell lines (human) (UniProt P09758); test: flow cytometry background, taken as human IgG1 isotype control; cell line printed 'SK8RS' (probably SKBR3)
# [8] = biological target: Human trophoblast cell surface antigen 2 (Trop-2), on tumor cell lines (human) (UniProt P09758); test: flow cytometry background, taken as human IgG1 isotype control; cell line printed 'BKFC-Y' (probably BXPC-3)
# [9] = biological target: Human trophoblast cell surface antigen 2 (Trop-2), on tumor cell lines (human) (UniProt P09758); test: flow cytometry background, taken as human IgG1 isotype control; cell line printed 'COXC28' (probably COLO205)
# [10] = biological target: Human trophoblast cell surface antigen 2 (Trop-2), on tumor cell lines (human) (UniProt P09758); test: flow cytometry background, taken as human IgG1 isotype control; cell line printed 'CPAC-1' (probably CFPAC-1)
# [11] = biological target: Human trophoblast cell surface antigen 2 (Trop-2), on tumor cell lines (human) (UniProt P09758); test: flow cytometry background, taken as human IgG1 isotype control; cell line printed 'Cxoo-1' (probably Capan-1)
# [12] = biological target: Human trophoblast cell surface antigen 2 (Trop-2), on tumor cell lines (human) (UniProt P09758); test: flow cytometry background, taken as human IgG1 isotype control; cell line printed 'HCCHOI' (probably HCC1806)
# [13] = biological target: Human trophoblast cell surface antigen 2 (Trop-2), on tumor cell lines (human) (UniProt P09758); test: flow cytometry background, taken as human IgG1 isotype control; cell line printed 'HOC1906' (probably HCC1806)
# [14] = biological target: Human trophoblast cell surface antigen 2 (Trop-2), on tumor cell lines (human) (UniProt P09758); test: flow cytometry background, taken as human IgG1 isotype control; cell line printed 'CCAO205' (probably COLO205)
# [15] = biological target: Human trophoblast cell surface antigen 2 (Trop-2), on tumor cell lines (human) (UniProt P09758); test: flow cytometry background, taken as human IgG1 isotype control; cell line printed 'Cepes-3' (probably Capan-1)
# [16] = biological target: Human trophoblast cell surface antigen 2 (Trop-2), on tumor cell lines (human) (UniProt P09758); test: flow cytometry background, taken as human IgG1 isotype control; cell line printed 'HOC2401' (probably NCIH2452)
# [17] = biological target: Human trophoblast cell surface antigen 2 (Trop-2), on tumor cell lines (human) (UniProt P09758); test: flow cytometry background, taken as human IgG1 isotype control; cell line printed 'SK-WSS-7' (probably SK-MES-1)
# [18] = biological target: Human trophoblast cell surface antigen 2 (Trop-2), on tumor cell lines (human) (UniProt P09758); test: flow cytometry background, taken as human IgG1 isotype control; cell line printed 'ECLC 214' (probably SCLC-21H)
# [19] = biological target: Human trophoblast cell surface antigen 2 (Trop-2), on tumor cell lines (human) (UniProt P09758); test: flow cytometry background, taken as human IgG1 isotype control; cell line printed 'SK-M55-1' (probably SK-MES-1)
# [20] = biological target: Human trophoblast cell surface antigen 2 (Trop-2), on tumor cell lines (human) (UniProt P09758); test: flow cytometry background, taken as human IgG1 isotype control; cell line printed 'SRM-C-21H' (probably SCLC-21H)
# [21] = biological target: Human trophoblast cell surface antigen 2 (Trop-2), on tumor cell lines (human) (UniProt P09758); test: flow cytometry background, taken as human IgG1 isotype control; cell line printed 'MCP-83-21' (probably MDA-MB-231)
# [22] = biological target: Human trophoblast cell surface antigen 2 (Trop-2), on tumor cell lines (human) (UniProt P09758); test: flow cytometry background, taken as human IgG1 isotype control; cell line printed 'RMCA' (pancreas; probably BXPC-3)
# [23] = biological target: Human trophoblast cell surface antigen 2 (Trop-2), on tumor cell lines (human) (UniProt P09758); test: flow cytometry background, taken as human IgG1 isotype control; cell line printed 'SRM-K9-231' (probably MDA-MB-231)
# [24] = biological target: Human trophoblast cell surface antigen 2 (Trop-2), on tumor cell lines (human) (UniProt P09758); test: flow cytometry background, taken as human IgG1 isotype control; cell line printed 'SRM-M9-409' (probably MDA-MB-468)
# [25] = biological target: Human trophoblast cell surface antigen 2 (Trop-2), on tumor cell lines (human) (UniProt P09758); test: flow cytometry background, taken as human IgG1 isotype control; cell line printed 'MOA-413-468' (probably MDA-MB-468)
# [26] = biological target: Human trophoblast cell surface antigen 2 (Trop-2), on tumor cell lines (human) (UniProt P09758); test: flow cytometry background, taken as human IgG1 isotype control; cell line printed 'HCl-11685' (probably NCI-H1688, called Trop-2-negative in paragraph 230)
# [27] = biological target: Human trophoblast cell surface antigen 2 (Trop-2), on tumor cell lines (human) (UniProt P09758); test: flow cytometry background, taken as human IgG1 isotype control; cell line printed 'NCl-H1828' (probably NCI-H1688, called Trop-2-negative in paragraph 230)
# [28] = Preparation of control ADC via hydrophobic VC linker (behaviour in solution); format: physicochemical; details: hydrophobic VC linker with PTX payload
# Method: A Troptargeted hRS7-VC-PTX molecule was prepared via a hydrophobic VC linker (FIG. 1a).
# UniProt P09758, sequence (P09758 27-323): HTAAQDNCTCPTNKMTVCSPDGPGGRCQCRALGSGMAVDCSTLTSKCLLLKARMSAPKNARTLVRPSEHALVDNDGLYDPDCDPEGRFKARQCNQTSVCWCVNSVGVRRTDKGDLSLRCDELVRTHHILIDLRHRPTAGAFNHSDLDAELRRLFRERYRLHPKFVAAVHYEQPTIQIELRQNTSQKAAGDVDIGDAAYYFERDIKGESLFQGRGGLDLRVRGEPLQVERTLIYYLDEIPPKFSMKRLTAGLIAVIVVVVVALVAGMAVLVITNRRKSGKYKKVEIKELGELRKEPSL
substance,measurement,setting,value
Humanized Trop-2 antibody hRS7,MFI,[1],35400 MFI
same,MFI,[2],3840 MFI
human IgG1 isotype control (antibody),MFI (background),[3],1580 MFI
same,MFI (background),[4],866 MFI
same,MFI (background),[5],894 MFI
same,MFI (background),[6],1850 MFI
same,MFI (background),[7],1830 MFI
same,MFI (background),[8],1670 MFI
same,MFI (background),[9],811 MFI
same,MFI (background),[10],1580 MFI
same,MFI (background),[11],3650 MFI
same,MFI (background),[12],692 MFI
same,MFI (background),[13],192 MFI
same,MFI (background),[14],1530 MFI
same,MFI (background),[15],3580 MFI
same,MFI (background),[16],1580 MFI
same,MFI (background),[17],691 MFI
same,MFI (background),[18],1230 MFI
same,MFI (background),[19],801 MFI
same,MFI (background),[20],1220 MFI
same,MFI (background),[21],1250 MFI
same,MFI (background),[22],1080 MFI
same,MFI (background),[23],1250 MFI
same,MFI (background),[24],378 MFI
same,MFI (background),[25],678 MFI
same,MFI (background),[26],868 MFI
same,MFI (background),[27],480 MFI
hRS7-VC-PTX,behaviour in solution during the preparation process,[28],completely precipitated out of solution

# — US20230346969A1, “INTERMEDIATE FOR PREPARING ANTIBODY-DRUG CONJUGATE (ADC), PREPARATION METHOD THEREFOR, AND USE THEREOF” (priority 2020, published 2023)
